These results are taken from the supplement of paper PMC10201428.

± gives the standard deviation of the averaged measurements.

The test system of series [1] is VchCAST RNA-guided transposition machinery (E. coli BL21(DE3) host, lacZ target). Briefly: relative integration efficiency (T-LR orientation) vs wild-type transposon end (log2 (normalized fold change)); transposon end mutated: right end (5 bp flank + 75 bp right end); higher = more efficient transposition. In a few lines: (§1)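 Co-transformation of E. coli BL21(DE3) combined a pUC57 mini-transposon donor, holding barcoded pools of 1549 left-end or 1849 right-end variants, with a T7-driven plasmid encoding a CRISPR array, tniQ-cas8-cas7-cas6 and tnsA-tnsB-tnsC. After plating with 0.1 mM IPTG at 37°C for 18 h, input plasmids and genomic integration junctions were PCR-amplified and Illumina-sequenced across two biological output replicates, with four reference barcodes. Relative integration efficiency is the normalised, log-transformed output/input barcode fold change.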

For series [2] the test system is unchanged. Kind of series: relative integration efficiency (T-RL orientation) vs wild-type transposon end (log2 (normalized fold change)); transposon end mutated: right end (5 bp flank + 75 bp right end); higher = more efficient transposition. Put shortly: as §1

“ACATTTGTTGATACAACCATAAAATGATAATTACAAAACTAAATTGATAATTATCACACCCATAAATTGATATTGCCTCTGATCATAGTCAGACCAACATTGCTACGACCCGTATTCGCACCGACAC”: the figures for the “relative integration efficiency (log2)” value in series [1] and in series [2] were -2.92 ± 0.79 and -2.29 ± 0.15, respectively.
“ACATTTGTTGATACAACCATAAAATGATAATTACAAACATAAATTGATAATTATCACACCCATAAATTGATATTGCCTCTGATCATAGTCAGACCAACATTGCTACGACCCGTATTCGCACCGACAC”: the “relative integration efficiency (log2)” value is -0.426 ± 0.17 in series [1] and -0.0203 ± 0.014 in series [2].
Turning to “ACATTTGTTGATACAACCATAAAATGATAATTACAACCATAAAATGATAATTATCACAACCATAAAATGATAATTACTCTGATCATAGTCAGACCAACATTGCTACGACCCGTATTCGCACCGACAC”, the “relative integration efficiency (log2)” value was -0.536 ± 0.21 in series [1] and -0.193 ± 0.0064 in series [2].
Turning to “ACATTTGTTGATACAACCATAAAATGATAATTACAACCATAAAATGATAATTATCACAACCATAAAGTGATATTTACTCTGATCATAGTCAGACCAACATTGCTACGACCCGTATTCGCACCGACAC”, the “relative integration efficiency (log2)” value in series [1] is -0.296 ± 0.44; in series [2], -0.175 ± 0.14.
Consider “ACATTTGTTGATACAACCATAAAATGATAATTACAACCATAAAATGATAATTATCACAACCATAAGTTGATATTTTCTCTGATCATAGTCAGACCAACATTGCTACGACCCGTATTCGCACCGACAC”, for which the “relative integration efficiency (log2)” value in series [1] is -0.17 ± 0.32; in series [2], -0.0104 ± 0.27.
For the sequence “ACATTTGTTGATACAACCATAAAATGATAATTACAACCATAAAATGATAATTATCACAACCATATATTGATATCTCCTCTGATCATAGTCAGACCAACATTGCTACGACCCGTATTCGCACCGACAC”, the “relative integration efficiency (log2)” value was 0.049 ± 0.22 in series [1] and -0.16 ± 0.32 in series [2].
On the same counts, the results for “ACATTTGTTGATACAACCATAAAATGATAATTACAACCATAAAATGATAATTATCACACCCATAAATTGATAATTACTCTGATCATAGTCAGACCAACATTGCTACGACCCGTATTCGCACCGACAC” are -0.0822 ± 0.2 and 0.0421 ± 0.03.
On the same counts, the results for “ACATTTGTTGATACAACCATAAAATGATAATTACAACCATAAAATGATAATTATCACACCCATAAATTGATATTGCCTCTGATCATAGTCAGACCAACATTGCTACGACCCGTATTCGCACCGACAC” are -0.38 ± 0.42 and -0.0716 ± 0.12.
As for “ACATTTGTTGATACAACCATAAAATGATAATTACAACCATAAAATGATAATTATCAGTGGGTATTTAACTATAACGCTCTGATCATAGTCAGACCAACATTGCTACGACCCGTATTCGCACCGACAC”, the figures for the “relative integration efficiency (log2)” value in series [1] and in series [2] were 2.54 ± 0.061 and -0.267 ± 0.21, respectively.
For “ACATTTGTTGATACAACCATAAAATGATAATTACAACCATAAAATGATAATTATCATAATTATCATTTTATGGTTGCTCTGATCATAGTCAGACCAACATTGCTACGACCCGTATTCGCACCGACAC”, the “relative integration efficiency (log2)” value came out at 1.96 ± 0.16 in series [1] and 0.241 ± 0.067 in series [2].
On to “ACATTTGTTGATACAACCATAAAATGATAATTACAACCATAAAATGATAATTATGATAATTATCATTTTATGGTTGCTCTGATCATAGTCAGACCAACATTGCTACGACCCGTATTCGCACCGACAC”, for which the results for the “relative integration efficiency (log2)” value in series [1] and in series [2] were 1.99 ± 0.068 and 0.301 ± 0.039, respectively.
Turning to “ACATTTGTTGATACAACCATAAAATGATAATTACAACCATAAAGTGATATTTATCACAACCATAAAATGATAATTACTCTGATCATAGTCAGACCAACATTGCTACGACCCGTATTCGCACCGACAC”, the entries for the “relative integration efficiency (log2)” value in series [1] and in series [2] were -0.0691 ± 0.38 and -0.258 ± 0.14, respectively.
Regarding “ACATTTGTTGATACAACCATAAAATGATAATTACAACCATAAAGTGATATTTATCACAACCATAAAGTGATATTTACTCTGATCATAGTCAGACCAACATTGCTACGACCCGTATTCGCACCGACAC”, the “relative integration efficiency (log2)” value in series [1] is -0.228 ± 0.22; in series [2], 0.0131 ± 0.077.
Regarding “ACATTTGTTGATACAACCATAAAATGATAATTACAACCATAAAGTGATATTTATCACAACCATAAGTTGATATTTTCTCTGATCATAGTCAGACCAACATTGCTACGACCCGTATTCGCACCGACAC”, the “relative integration efficiency (log2)” value in series [1] is -0.251 ± 0.14; in series [2], -0.0894 ± 0.09.
In the case of “ACATTTGTTGATACAACCATAAAATGATAATTACAACCATAAAGTGATATTTATCACAACCATATATTGATATCTCCTCTGATCATAGTCAGACCAACATTGCTACGACCCGTATTCGCACCGACAC”, the “relative integration efficiency (log2)” value is -0.276 ± 0.022 in series [1] and -0.331 ± 0.17 in series [2].
“ACATTTGTTGATACAACCATAAAATGATAATTACAACCATAAAGTGATATTTATCACACCCATAAATTGATAATTACTCTGATCATAGTCAGACCAACATTGCTACGACCCGTATTCGCACCGACAC”: the “relative integration efficiency (log2)” value is -0.0135 ± 0.3 in series [1] and 0.00575 ± 0.15 in series [2].
Take “ACATTTGTTGATACAACCATAAAATGATAATTACAACCATAAAGTGATATTTATCACACCCATAAATTGATATTGCCTCTGATCATAGTCAGACCAACATTGCTACGACCCGTATTCGCACCGACAC”: the “relative integration efficiency (log2)” value is -0.0327 ± 0.15 in series [1] and -0.128 ± 0.23 in series [2].
In the case of “ACATTTGTTGATACAACCATAAAATGATAATTACAACCATAAAGTGATATTTATCAGTGGGTATTTAACTATAACGCTCTGATCATAGTCAGACCAACATTGCTACGACCCGTATTCGCACCGACAC”, the “relative integration efficiency (log2)” value in series [1] is 2.5 ± 0.1; in series [2], -0.586 ± 0.2.
“ACATTTGTTGATACAACCATAAAATGATAATTACAACCATAAGTTGATATTTTTCACAACCATAAAATGATAATTACTCTGATCATAGTCAGACCAACATTGCTACGACCCGTATTCGCACCGACAC”: the “relative integration efficiency (log2)” value is -0.0321 ± 0.022 in series [1] and -0.308 ± 0.21 in series [2].
On to “ACATTTGTTGATACAACCATAAAATGATAATTACAACCATAAGTTGATATTTTTCACAACCATAAAGTGATATTTACTCTGATCATAGTCAGACCAACATTGCTACGACCCGTATTCGCACCGACAC”, for which the “relative integration efficiency (log2)” value in series [1] amounted to 0.666 ± 0.12; in series [2] it was 0.274 ± 0.2.
For “ACATTTGTTGATACAACCATAAAATGATAATTACAACCATAAGTTGATATTTTTCACAACCATAAGTTGATATTTTCTCTGATCATAGTCAGACCAACATTGCTACGACCCGTATTCGCACCGACAC”, the “relative integration efficiency (log2)” value in series [1] is -0.201 ± 0.37; in series [2], 0.0355 ± 0.25.
On the same counts, the results for “ACATTTGTTGATACAACCATAAAATGATAATTACAACCATAAGTTGATATTTTTCACAACCATATATTGATATCTCCTCTGATCATAGTCAGACCAACATTGCTACGACCCGTATTCGCACCGACAC” are 0.235 ± 0.079 and -0.125 ± 0.19.
On the same counts, the results for “ACATTTGTTGATACAACCATAAAATGATAATTACAACCATAAGTTGATATTTTTCACACCCATAAATTGATAATTACTCTGATCATAGTCAGACCAACATTGCTACGACCCGTATTCGCACCGACAC” are -0.141 ± 0.51 and -0.168 ± 0.11.
On to “ACATTTGTTGATACAACCATAAAATGATAATTACAACCATAAGTTGATATTTTTCACACCCATAAATTGATATTGCCTCTGATCATAGTCAGACCAACATTGCTACGACCCGTATTCGCACCGACAC”, for which the “relative integration efficiency (log2)” value in series [1] was 0.0596 ± 0.086; in series [2] it was -0.349 ± 0.2.
The matching figures for “ACATTTGTTGATACAACCATAAAATGATAATTACAACCATAAGTTGATATTTTTCAGTGGGTATTTAACTATAACGCTCTGATCATAGTCAGACCAACATTGCTACGACCCGTATTCGCACCGACAC”: 2.72 ± 0.21 and -0.515 ± 0.22.
On the same counts, the results for “ACATTTGTTGATACAACCATAAAATGATAATTACAACCATATATTGATATCTCTCACAACCATAAAATGATAATTACTCTGATCATAGTCAGACCAACATTGCTACGACCCGTATTCGCACCGACAC” are 0.146 ± 0.15 and -0.257 ± 0.18.
For the sequence “ACATTTGTTGATACAACCATAAAATGATAATTACAACCATATATTGATATCTCTCACAACCATAAAGTGATATTTACTCTGATCATAGTCAGACCAACATTGCTACGACCCGTATTCGCACCGACAC”, the “relative integration efficiency (log2)” value was 0.0743 ± 0.02 in series [1] and -0.5 ± 0.27 in series [2].
On to “ACATTTGTTGATACAACCATAAAATGATAATTACAACCATATATTGATATCTCTCACAACCATAAGTTGATATTTTCTCTGATCATAGTCAGACCAACATTGCTACGACCCGTATTCGCACCGACAC”, for which the “relative integration efficiency (log2)” value is -0.141 ± 0.5 in series [1] and -0.374 ± 0.19 in series [2].
The matching figures for “ACATTTGTTGATACAACCATAAAATGATAATTACAACCATATATTGATATCTCTCACAACCATATATTGATATCTCCTCTGATCATAGTCAGACCAACATTGCTACGACCCGTATTCGCACCGACAC”: 0.0166 ± 0.61 and -0.574 ± 0.17.
The matching figures for “ACATTTGTTGATACAACCATAAAATGATAATTACAACCATATATTGATATCTCTCACACCCATAAATTGATAATTACTCTGATCATAGTCAGACCAACATTGCTACGACCCGTATTCGCACCGACAC”: -0.0249 ± 0.15 and -0.651 ± 0.2.
Turning to “ACATTTGTTGATACAACCATAAAATGATAATTACAACCATATATTGATATCTCTCACACCCATAAATTGATATTGCCTCTGATCATAGTCAGACCAACATTGCTACGACCCGTATTCGCACCGACAC”, the figures for the “relative integration efficiency (log2)” value in series [1] and in series [2] were 0.0992 ± 0.38 and -0.424 ± 0.15, respectively.
With “ACATTTGTTGATACAACCATAAAATGATAATTACAACCATATATTGATATCTCTCAGTGGGTATTTAACTATAACGCTCTGATCATAGTCAGACCAACATTGCTACGACCCGTATTCGCACCGACAC”, the “relative integration efficiency (log2)” value in series [1] was 3.01 ± 0.18; in series [2], -0.933 ± 0.28.
